Patent publication US20240092890A1 (JUNTENDO EDUCATIONAL FOUNDATION, published 2024)

T1: protein having an Fc region and a His-tag added to the N-terminus of SEQ ID NO: 1
T1 construct: also called mutant CALR protein (antigen of the BLItz measurement); not shown: Fc region and His-tag at the N-terminus
T1 chain: RRMMRTKMRMRRM

T2: Ins 5 type mutant CALR protein on UT-7/TPO CALR Ins 5 cells (UniProt P27797 18-417)
T2 sequence (looked up): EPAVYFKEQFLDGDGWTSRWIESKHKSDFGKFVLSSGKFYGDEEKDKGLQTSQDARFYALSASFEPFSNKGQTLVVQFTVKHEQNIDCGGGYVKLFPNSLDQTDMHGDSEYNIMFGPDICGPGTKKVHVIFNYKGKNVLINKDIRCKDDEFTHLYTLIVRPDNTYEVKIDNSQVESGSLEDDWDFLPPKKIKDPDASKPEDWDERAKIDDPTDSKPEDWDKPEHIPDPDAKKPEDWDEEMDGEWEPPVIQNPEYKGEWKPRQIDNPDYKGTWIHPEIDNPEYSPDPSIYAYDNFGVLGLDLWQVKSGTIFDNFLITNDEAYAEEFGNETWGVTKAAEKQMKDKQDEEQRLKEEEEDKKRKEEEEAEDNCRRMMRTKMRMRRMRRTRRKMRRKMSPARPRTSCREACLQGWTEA


Experiments:
[1] = target: T1, protein having an Fc region and a …; assay: BLItz biolayer interferometry, Fc/His-SEQ ID NO: 1 protein on the biosensor
Method in brief: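 The Fc/His-tagged protein was loaded at 0.1 mg/mL onto Anti-Penta-HIS or Protein A biosensors. Antibodies were run at 500, 100 and 50 nM by biolayer interferometry, and the dissociation constant was derived from these binding curves.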

[2] = target: T2, Ins 5 type mutant CALR protein on …; assay: cell-based or functional assay
[3] = target: T2, Ins 5 type mutant CALR protein on …; assay: cell-based or functional assay; remark: listed apart in the source

| Binder | Kd [1] [nM] | EC50 of cytotoxic activity (calcein release, T-LAK effector cells) [2] [pM] | EC50 of cytotoxic activity (pM) [3] [pM] |
| --- | --- | --- | --- |
| Antibody 9 (bispecific antibody, B3 VH-VL scFv and hOKT3 VH-VL scFv in one polypeptide, no Fc) QVQLQQSGAELVKPGSSVKISCKASGYTFTRNFIHWIKQQPGNGLEWIGWIFPGDGDTEYNQKFNGKATLTADKSSSTAYMQLSSLTSEDSAVYFCARGNYNYEYFDYWGQGVMVTVSSGGGGSGGGGSGGGGSDIQMTQSPASLSASLGETVSIECLASEDIYSYLAWYQQKPGKSPQLLIFAANRLQDGVPSRFSGSGSGTQFSLKISGMQPEDEGDYFCLQGSKFPYTFGPGTKLELNGGGGSQVQLVQSGGGVVQPGRSLRLSCKASGYTFTRYTMHWVRQAPGKGLEWIGYINPSRGYTNYNQKVKDRFTISRDNSKNTAFLQMDSLRPEDTGVYFCARYYDDHYSLDYWGQGTPVTVSSGGGGSGGGGSGGGGSDIQMTQSPSSLSASVGDRVTITCSASSSVSYMNWYQQTPGKAPKRWIYDTSKLASGVPSRFSGSGSGTDYTFTISSLQPEDIATYYCQQWSSNPFTFGQGTKLQITRHHHHHH | 6.55 | 1530 | – |
| Antibody 29 (bispecific antibody, format not described) chain 1: QVQLVQSGAEVKKPGASVKVSCKASGYSFTGYYIHWVRQAPGQGLEWIGYISAYNGASSYNQKFKGRATFTVDTSISTAYMELSRLRSDDTAVYYCASSMDYWGQGTLVTVSSASTKGPSVFPLAPSSKSTSGGTAALGCLVKDYFPEPVTVSWNSGALTSGVHTFPAVLQSSGLYSLSSVVTVPSSSLGTQTYICNVNHKPSNTKVDKRVEPKSCGGGGSQVQLVQSGGGVVQPGRSLRLSCKASGYTFTRYTMHWVRQAPGKGLEWIGYINPSRGYTNYNQKVKDRFTISRDNSKNTAFLQMDSLRPEDTGVYFCARYYDDHYSLDYWGQGTPVTVSSGGGGSGGGGSGGGGSDIQMTQSPSSLSASVGDRVTITCSASSSVSYMNWYQQTPGKAPKRWIYDTSKLASGVPSRFSGSGSGTDYTFTISSLQPEDIATYYCQQWSSNPFTFGQGTKLQITRHHHHHH chain 2: DVVMTQSPLSLPVTLGQPASISCKSSQSLLDSDGKTYLNWLQQRPGQSPKRLIYLVSKLDSGVPDRFSGSGSGTDFTLKISRVEAEDVGVYHCWQGTHFPYTFGQGTKLEIKRTVAAPSVFIFPPSDEQLKSGTASVVCLLNNFYPREAKVQWKVDNALQSGNSQESVTEQDSKDSTYSLSSTLTLSKADYEKHKVYACEVTHQGLSSPVTKSFNRGEC | 5700 | 634 | – |
| B3 chimeric antibody (antibody, human IgG1, kappa, L234A L235A, monospecific anti-mutant CALR antibody, no CD3 arm) heavy: not shown light: DIQMTQSPASLSASLGETVSIECLASEDIYSYLAWYQQKPGKSPQLLIFAANRLQDGVPSRFSGSGSGTQFSLKISGMQPEDEGDYFCLQGSKFPYTFGPGTKLELNRTVAAPSVFIFPPSDEQLKSGTASVVCLLNNFYPREAKVQWKVDNALQSGNSQESVTEQDSKDSTYSLSSTLTLSKADYEKHKVYACEVTHQGLSSPVTKSFNRGEC | < 0.001 | > 10000 | – |
| Antibody 14 (bispecific antibody, human IgG1, kappa, L234A L235A, B3 IgG with hOKT3 scFv fused to the heavy chain C-terminus) heavy: not shown light: DIQMTQSPASLSASLGETVSIECLASEDIYSYLAWYQQKPGKSPQLLIFAANRLQDGVPSRFSGSGSGTQFSLKISGMQPEDEGDYFCLQGSKFPYTFGPGTKLELNRTVAAPSVFIFPPSDEQLKSGTASVVCLLNNFYPREAKVQWKVDNALQSGNSQESVTEQDSKDSTYSLSSTLTLSKADYEKHKVYACEVTHQGLSSPVTKSFNRGEC | < 0.001 | 989 | – |
| Antibody 15 (bispecific antibody, human IgG1, kappa, L234A L235A, B3 half IgG hetero-associated by knob-into-hole with hOKT3 scFv-Fc) heavy: not shown light: DIQMTQSPASLSASLGETVSIECLASEDIYSYLAWYQQKPGKSPQLLIFAANRLQDGVPSRFSGSGSGTQFSLKISGMQPEDEGDYFCLQGSKFPYTFGPGTKLELNRTVAAPSVFIFPPSDEQLKSGTASVVCLLNNFYPREAKVQWKVDNALQSGNSQESVTEQDSKDSTYSLSSTLTLSKADYEKHKVYACEVTHQGLSSPVTKSFNRGEC QVQLVQSGGGVVQPGRSLRLSCKASGYTFTRYTMHWVRQAPGKGLEWIGYINPSRGYTNYNQKVKDRFTISRDNSKNTAFLQMDSLRPEDTGVYFCARYYDDHYSLDYWGQGTPVTVSSGGGGSGGGGSGGGGSDIQMTQSPSSLSASVGDRVTITCSASSSVSYMNWYQQTPGKAPKRWIYDTSKLASGVPSRFSGSGSGTDYTFTISSLQPEDIATYYCQQWSSNPFTFGQGTKLQITREPKSCDKTHTCPPCPAPEAAGGPSVFLFPPKPKDTLMISRTPEVTCVVVDVSHEDPEVKFNWYVDGVEVHNAKTKPREEQYNSTYRVVSVLTVLHQDWLNGKEYKCKVSNKALPAPIEKTISKAKGQPREPQVCTLPPSREEMTKNQVSLSCAVKGFYPSDIAVEWESNGQPENNYKTTPPVLDSDGSFFLVSKLTVDKSRWQQGNVFSCSVMHEALHNHYTQKSLSLSPGK | 6.68 | 1290 | – |
| Antibody 13 (bispecific antibody, human IgG1, kappa, L234A L235A, B3 IgG with knob-into-hole heavy chains, hOKT3 scFv fused to the C-terminus of one heavy chain) heavy 1: not shown heavy 2: QVQLQQSGAELVKPGSSVKISCKASGYTFTRNFIHWIKQQPGNGLEWIGWIFPGDGDTEYNQKFNGKATLTADKSSSTAYMQLSSLTSEDSAVYFCARGNYNYEYFDYWGQGVMVTVSSASTKGPSVFPLAPSSKSTSGGTAALGCLVKDYFPEPVTVSWNSGALTSGVHTFPAVLQSSGLYSLSSVVTVPSSSLGTQTYICNVNHKPSNTKVDKRVEPKSCDKTHTCPPCPAPEAAGGPSVFLFPPKPKDTLMISRTPEVTCVVVDVSHEDPEVKFNWYVDGVEVHNAKTKPREEQYNSTYRVVSVLTVLHQDWLNGKEYKCKVSNKALPAPIEKTISKAKGQPREPQVCTLPPSREEMTKNQVSLSCAVKGFYPSDIAVEWESNGQPENNYKTTPPVLDSDGSFFLVSKLTVDKSRWQQGNVFSCSVMHEALHNHYTQKSLSLSPGKGGGGSQVQLVQSGGGVVQPGRSLRLSCKASGYTFTRYTMHWVRQAPGKGLEWIGYINPSRGYTNYNQKVKDRFTISRDNSKNTAFLQMDSLRPEDTGVYFCARYYDDHYSLDYWGQGTPVTVSSGGGGSGGGGSGGGGSDIQMTQSPSSLSASVGDRVTITCSASSSVSYMNWYQQTPGKAPKRWIYDTSKLASGVPSRFSGSGSGTDYTFTISSLQPEDIATYYCQQWSSNPFTFGQGTKLQITR light: DIQMTQSPASLSASLGETVSIECLASEDIYSYLAWYQQKPGKSPQLLIFAANRLQDGVPSRFSGSGSGTQFSLKISGMQPEDEGDYFCLQGSKFPYTFGPGTKLELNRTVAAPSVFIFPPSDEQLKSGTASVVCLLNNFYPREAKVQWKVDNALQSGNSQESVTEQDSKDSTYSLSSTLTLSKADYEKHKVYACEVTHQGLSSPVTKSFNRGEC | < 0.001 | 4470 | – |
| Antibody 86 (bispecific antibody) chain 1: not shown chain 2: DIQMTQSPSSLSASVGDRVTITCLASEDIYSYLAWYQQKPGKAPKLLIFAANRLQSGVPSRFSGSGSGTDFTLTISSLQPEDFATYYCLQGSKFPYTFGPGTKVDIKRTVAAPSVFIFPPSDEQLKSGTASVVCLLNNFYPREAKVQWKVDNALQSGNSQESVTEQDSKDSTYSLSSTLTLSKADYEKHKVYACEVTHQGLSSPVTKSFNRGEC | < 0.001 | – | 58 |
| Antibody 89 (bispecific antibody) chain 1: not shown chain 2: DIQMTQSPSSLSASVGDRVTITCLASEDIYSYLAWYQQKPGKAPKLLIFAANRLQSGVPSRFSGSGSGTDFTLTISSLQPEDFATYYCLQGSKFPYTFGPGTKVDIKRTVAAPSVFIFPPSDEQLKSGTASVVCLLNNFYPREAKVQWKVDNALQSGNSQESVTEQDSKDSTYSLSSTLTLSKADYEKHKVYACEVTHQGLSSPVTKSFNRGEC | < 0.001 | – | 77 |
| Antibody 88 (bispecific antibody) chain 1: not shown chain 2: DIQMTQSPSSLSASVGDRVTITCLASEDIYSYLAWYQQKPGKAPKLLIFAANRLQSGVPSRFSGSGSGTDFTLTISSLQPEDFATYYCLQGSKFPYTFGPGTKVDIKRTVAAPSVFIFPPSDEQLKSGTASVVCLLNNFYPREAKVQWKVDNALQSGNSQESVTEQDSKDSTYSLSSTLTLSKADYEKHKVYACEVTHQGLSSPVTKSFNRGEC | < 0.001 | – | 28 |
